Source: doi:10.1101/2020.01.27.920827 (bioRxiv, 2020)

B1: epsin1 ENTH domain, wild type (Rat Epsin1 WT ENTH 1-164) (domain or fragment)
chain: MSTSSLRRQMKNIVHNYSEAEIKVREATSNDPWGPSSSLMSEIADLTYNVVAFSEIMSMIWKRLNDHGKNWRHVYKAMTLMEYLIKTGSERVSQQCKENMYAVQTLKDFQYVDRDGKDQGVNVREKAKQLVALLRDEDRLREERAHALKTKEKLAQTATASSAA
B2: ENTH WT (C96A A155C) domain, labelled with Atto488 maleimide or Atto532 maleimide (domain or fragment)
chain: MSTSSLRRQMKNIVHNYSEAEIKVREATSNDPWGPSSSLMSEIADLTYNVVAFSEIMSMIWKRLNDHGKNWRHVYKAMTLMEYLIKTGSERVSQQAKENMYAVQTLKDFQYVDRDGKDQGVNVREKAKQLVALLRDEDRLREERAHALKTKEKLCQTATASSAA
modifications: Atto488 maleimide (donor population) or Atto532 maleimide (acceptor population), by cysteine modification

Columns and labels:
[1] = molecular target: the molecule itself; assay: SDS-resistant oligomer bands on SDS-PAGE after liposome co-sedimentation
FRET or BRET = molecular target: the molecule itself; assay: FRET or BRET

Protein | binding result [1] | binding result (FRET or BRET)
B1 | binds | –
B2 | – | binds
